These are literature values, as cited in paper PMC3208733.

Where “and” joins values, the source holds several entries; their conditions need not be identical. Equal entries are not always repeated.

In this data set the target is scaffolding protein (Salmonella phage P22) (UniProt P26748).

A word on the Kd: it is the constant that tells how readily two partners part at equilibrium. On to “scaffolding protein (from UniProt P26748)”, for which the Kd was 78 µM and 170 µM.
